Where only a bound is given, the exact number is not on record here.

From US20150203579A1 (Regeneron, published 2015) come the findings set out here.

In assay [1] the target is T1, human PD-1 dimer (human PD-1-mFc or human PD-1-hFc) (human, UniProt Q15116 25-170).
T1 construct: also called hPD-1-mFc; hPD1-hFc
Kind of assay: SPR, mAb captured, 25C. In general terms: Surface plasmon resonance follows binding to a sensor surface in real time, without labels.

For assay [2], the target named is T1, human PD-1 dimer (human PD-1-mFc or …). As to the kind of experiment: SPR, mAb captured, 37C.
For assay [3], the target named is T2, recombinant cynomolgus monkey PD-1 expressed with a C-terminal myc-myc-hexahistidine tag (cynomolgus monkey (Macaca fascicularis)).
T2 construct: monomeric; also called MfPD-1-MMH
T2 chain: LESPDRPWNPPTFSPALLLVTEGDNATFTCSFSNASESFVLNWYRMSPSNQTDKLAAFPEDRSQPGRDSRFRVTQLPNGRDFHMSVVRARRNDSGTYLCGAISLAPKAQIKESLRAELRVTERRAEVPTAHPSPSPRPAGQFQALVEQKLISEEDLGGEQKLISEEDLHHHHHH
Kind of assay: SPR, mAb captured, 25C.

Assay [4] concerns the target T3, recombinant human PD-1 expressed with a C-terminal myc-myc-hexahistidine tag (human).
T3 construct: monomeric; also called hPD-1-MMH; human PD-1-MMH
Kind of assay: SPR, mAb captured, 37C.

Assay [5] concerns the target T2, recombinant cynomolgus monkey PD-1 …. Kind of assay: SPR, mAb captured, 37C.

T1 sequence (Q15116 25-170 C93S): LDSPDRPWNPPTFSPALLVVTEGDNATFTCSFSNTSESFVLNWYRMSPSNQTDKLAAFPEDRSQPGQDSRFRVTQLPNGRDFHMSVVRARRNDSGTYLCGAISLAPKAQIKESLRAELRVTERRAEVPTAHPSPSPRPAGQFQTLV

B1: H2aM7788N (antibody, mouse IgG2a, V domains shown)
VH: EVQLVESGGGLVQPGGSLRLSCGASGFTFRNYDMHWVRQITGKGLEWVSAIGSAGDTYYPDSVKGRFTISRENAKNSLYLQMNSLRVGDTAVYYCTRDIHCSSTRCYGMDVWGQGTTVTVSS
VL: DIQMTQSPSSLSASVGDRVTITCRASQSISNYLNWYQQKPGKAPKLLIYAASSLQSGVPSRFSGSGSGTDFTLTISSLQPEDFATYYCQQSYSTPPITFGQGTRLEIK
notes: Human variable regions, mouse IgG2a Fc; also called H2M7788N
As to B1, the Kd came to 0.315 nM in assay [1]; 0.163 nM in assay [2]; 76.6 nM in assay [3]; 51.9 nM in assay [4]; 174 nM in assay [5]. Also, the off-rate constant (koff) stood at 2.82e-05 s⁻¹ in assay [1]; 2.13e-05 s⁻¹ in assay [2]; 0.000662 s⁻¹ in assay [3]; 0.00149 s⁻¹ in assay [4]; 0.00328 s⁻¹ in assay [5]. Also, the on-rate (kon) in assay [1] amounted to 89400 M⁻¹ s⁻¹; in assay [2], 131000 M⁻¹ s⁻¹; in assay [3], 8630 M⁻¹ s⁻¹; in assay [4], 28800 M⁻¹ s⁻¹; in assay [5], 18800 M⁻¹ s⁻¹. Moreover, the t½ is 410 min in assay [1]; 542 min in assay [2]; 17 min in assay [3]; 7.7 min in assay [4]; 3.5 min in assay [5].

B2: H2aM7795N (antibody, mouse IgG2a, V domains shown)
VH: EVQVVESGGGLVEPGRSLRLSCKASGFTFDDYAMHWVRQTPGKALEWVSGINWSGNNIGYADSVKGRFTISKDDAKNSLYLQMNSLRPEDTALYYCTKDISITGTLDAFDVWGQGTMVTVSS
VL: DIQMTQSPISVSASVGDRVTITCRASQGISNWLAWYQQKPGIAPKLLIYSASSLQSGVPSRFRGSGSGTDFTLTIGSLQPEDFATYYCQQAHSFPLTFGGGTKVEIK
notes: Human variable regions, mouse IgG2a Fc; also called H2M7795N
On to B2, for which the dissociation constant (Kd) in assay [1] was determined as 0.227 nM; in assay [2] it was 0.371 nM; in assay [3] it was 20.1 nM; in assay [4] it was 67.8 nM; in assay [5], 60.2 nM. Further, the koff stood at 3.14e-05 s⁻¹ in assay [1]; 6.13e-05 s⁻¹ in assay [2]; 0.000889 s⁻¹ in assay [3]; 0.00458 s⁻¹ in assay [4]; 0.00389 s⁻¹ in assay [5]. The on-rate constant (kon) was determined as 138000 M⁻¹ s⁻¹ in assay [1]; 165000 M⁻¹ s⁻¹ in assay [2]; 44400 M⁻¹ s⁻¹ in assay [3]; 67500 M⁻¹ s⁻¹ in assay [4]; 64700 M⁻¹ s⁻¹ in assay [5]. Also, the t½ in assay [1] was 368 min; in assay [2] it was 188 min; in assay [3], 13 min; in assay [4] it was 2.5 min; in assay [5], 3 min.

B3: H2aM7791N (antibody, mouse IgG2a, V domains shown)
VH: QMQLQQWGAGLLKPSETLSLTCVVYGGSLNGYYWSWIRQSPGKGLEWIGEIDHSGSTNYNPSLKNRVTMSVDTSKIQFSLKLTSVTVADTAVYYCAREGLLPFDYWGQGTLVTVSS
VL: EIVLTQSPGTLSLSPGERVTLSCRASQSVYSNYLAWYQQNPGQAPRLLIYAASNRATGIPDRFSGSGSGTDFTLTISRLEPEDFAVYYCHQYATSPWTFGQGTKVEIK
notes: Human variable regions, mouse IgG2a Fc; also called H2M7791N
B3: the equilibrium dissociation constant (Kd) stood at 2.49 nM in assay [1]; 3.59 nM in assay [2]; 34.4 nM in assay [3]; 53.5 nM in assay [4]; 50.5 nM in assay [5]. The koff in assay [1] stood at 0.000101 s⁻¹; in assay [2] it was 0.000179 s⁻¹; in assay [3] it was 0.000553 s⁻¹; in assay [4], 0.00224 s⁻¹; in assay [5] it was 0.00191 s⁻¹. In addition, the association rate constant (kon) in assay [1] was 40500 M⁻¹ s⁻¹; in assay [2], 49800 M⁻¹ s⁻¹; in assay [3] it was 16100 M⁻¹ s⁻¹; in assay [4], 41800 M⁻¹ s⁻¹; in assay [5], 37900 M⁻¹ s⁻¹. Also, the t½ was determined as 114 min in assay [1]; 65 min in assay [2]; 21 min in assay [3]; 5.2 min in assay [4]; 6 min in assay [5].

B4: H2aM7794N (antibody, V domains shown)
VH: QLQLQESGPDLVKPSDTLSLTCTVSDDSISSTTYYWAWIRQPPGKGLEWIGSMSYNGNNYYNPSLKSRVAISAGTSQKQFSLKLTSVTAADTAVYHCARHLGYNGNWYPFDFWGQGILVTVSS
VL: not shown
notes: Human variable regions, mouse IgG2a Fc; also called H2M7794N
Consider B4, for which the dissociation constant (Kd) in assay [1] was found to be 0.593 nM; in assay [2], 0.452 nM; in assay [3], 166 nM; in assay [4] it was 66.1 nM; in assay [5], 302 nM. The dissociation rate constant (koff) in assay [1] was 0.000106 s⁻¹; in assay [2], 0.000211 s⁻¹; in assay [3], 0.00599 s⁻¹; in assay [4], 0.00792 s⁻¹; in assay [5] it was 0.0201 s⁻¹. Further, the kon in assay [1] worked out at 179000 M⁻¹ s⁻¹; in assay [2], 468000 M⁻¹ s⁻¹; in assay [3] it was 36000 M⁻¹ s⁻¹; in assay [4] it was 120000 M⁻¹ s⁻¹; in assay [5], 66600 M⁻¹ s⁻¹. Besides, the t½ in assay [1] is 109 min; in assay [2] it was 55 min; in assay [3] it was 1.9 min; in assay [4] it was 1.5 min; in assay [5], 0.6 min.

B5: H1M7799N (antibody, mouse IgG1, V domains shown)
VH: EVQLVESGGGLVQPGGSLRLSCAASGFTVSNNYMSWVRQAPGKGLEWVSVIYSGGFTYYTDSVKGRFTISRHNSKNTLYLQMNSLRAEDTAVYYCARYYYDTSDYWTFFDYWGQGTLVTVSS
VL: EIVMTQSPATLSVSPGERATLSCRASQSVSSNLAWYQQKPGQAPRLLIYGASTRATGIPARFSGSGSGTEFTLTISSLQSGDFAVYYCQQYNNWPLTFGGGTKVEIN
notes: Human variable regions, mouse IgG1 Fc
Turning to B5, the Kd in assay [1] came to 0.36 nM; in assay [2], 0.411 nM; in assay [3] it was 224 nM; in assay [4] it was 536 nM; in assay [5] it was 530 nM. Also, the off-rate (koff) in assay [1] stood at 8.55e-05 s⁻¹; in assay [2], 0.000181 s⁻¹; in assay [3] it was 0.013 s⁻¹; in assay [4], 0.0425 s⁻¹; in assay [5], 0.0467 s⁻¹. The on-rate (kon) in assay [1] turned out to be 238000 M⁻¹ s⁻¹; in assay [2], 441000 M⁻¹ s⁻¹; in assay [3], 57800 M⁻¹ s⁻¹; in assay [4], 79400 M⁻¹ s⁻¹; in assay [5], 88000 M⁻¹ s⁻¹. Further, the t½ in assay [1] stood at 135 min; in assay [2], 64 min; in assay [3], 0.9 min; in assay [4] it was 0.3 min; in assay [5], 0.2 min.

B6: H1M7800N (antibody, mouse IgG1, V domains shown)
VH: EVQLVESGGGLVQPGGSLRLSCAASGFTVSNNYMSWVRQAPGKGLEWVSVIYSGGFTYYTDSVKGRFTISRHNSKNTLYLQMNSLRAEDTAVYYCARYYYDTSDYWTFFDYWGQGTLVTVSS
VL: EIVMTQSPATLSVSPGERATLSCRASQSVSSNLAWYQQKPGQAPRLLIYGASTRATGIPARFSGSGSGTEFTLTISSLQSGDFAVYYCQQYNNWPLTFGGGTKVEIN
notes: as for B5
On to B6, for which the Kd worked out at 0.509 nM in assay [1]; 0.45 nM in assay [2]; 176 nM in assay [3]; 510 nM in assay [4]; 527 nM in assay [5]. For the same molecule, the koff in assay [1] was 7.72e-05 s⁻¹; in assay [2], 0.000181 s⁻¹; in assay [3], 0.0104 s⁻¹; in assay [4], 0.0399 s⁻¹; in assay [5], 0.0443 s⁻¹. Also, the kon turned out to be 152000 M⁻¹ s⁻¹ in assay [1]; 400000 M⁻¹ s⁻¹ in assay [2]; 58900 M⁻¹ s⁻¹ in assay [3]; 78300 M⁻¹ s⁻¹ in assay [4]; 84000 M⁻¹ s⁻¹ in assay [5]. Also, the t½ was 150 min in assay [1]; 64 min in assay [2]; 1.1 min in assay [3]; 0.3 min in assay [4]; 0.3 min in assay [5].

B7: H1M7789N (antibody, mouse IgG1, V domains shown)
VH: EVQLLESGGGLVQPGGSLRLSCSASGFTFSSYTMNWVRQAPGKGLEWVSGISDTGGNTYYTDSVKGRFTVSRDNSKNTLSLQMNSLRAEDTAVYYCAKDQGGSYPYYFHYWGQGSLVTVSS
VL: DIQMTQSPSSLSASVGDRVTITCRASQSISSYLIWYQQKPGTAPKFLIYAASSLQSGVPSRFSGCGSGTDFTLTISSLQPEDFATYYCQQSYSTPPITFGQGTRLEIK
notes: as for B5
As for B7, the Kd in assay [1] was 1.1 nM; in assay [2] it was at most 0.0917 nM; in assay [3] it was 7.89 nM; in assay [4], 6.52 nM; in assay [5], 8.5 nM. Also, the off-rate (koff) in assay [1] was 4.31e-05 s⁻¹; in assay [2] it was at most 1e-05 s⁻¹; in assay [3] it was 0.000123 s⁻¹; in assay [4] it was 0.000295 s⁻¹; in assay [5], 0.000408 s⁻¹. For the same molecule, the association rate constant (kon) in assay [1] amounted to 39100 M⁻¹ s⁻¹; in assay [2] it was 109000 M⁻¹ s⁻¹; in assay [3], 15500 M⁻¹ s⁻¹; in assay [4] it was 45300 M⁻¹ s⁻¹; in assay [5] it was 47900 M⁻¹ s⁻¹. Further, the t½ in assay [1] is 268 min; in assay [2] it was at least 1160 min; in assay [3], 94 min; in assay [4], 39 min; in assay [5], 28 min.

B8: H2aM7798N (antibody, mouse IgG2a, V domains shown)
VH: EVQLLESGGVLVQPGGSLRLSCAASGFTFSNFGMTWVRQAPGKGLEWVSGISGGGRDTYFADSVKGRFTISRDNSKNTLYLQMNSLKGEDTAVYYCVKWGNIYFDYWGQGTLVTVSS
VL: DIQMTQSPSSLSASVGDSITITCRASLSINTFLNWYQQKPGKAPNLLIYAASSLHGGVPSRFSGSGSGTDFTLTIRTLQPEDFATYYCQQSSNTPFTFGPGTVVDFR
notes: Human variable regions, mouse IgG2a Fc; also called H2M7798N
For the molecule B8, the Kd in assay [1] stood at 0.0655 nM; in assay [2], 0.028 nM; in assay [3], 4.5 nM; in assay [4], 3.79 nM; in assay [5] it was 7 nM. For the same molecule, the koff in assay [1] was found to be 2.29e-05 s⁻¹; in assay [2] it was 1.4e-05 s⁻¹; in assay [3] it was 0.000393 s⁻¹; in assay [4] it was 0.000656 s⁻¹; in assay [5] it was 0.000993 s⁻¹. Moreover, the kon in assay [1] stood at 350000 M⁻¹ s⁻¹; in assay [2], 490000 M⁻¹ s⁻¹; in assay [3], 87200 M⁻¹ s⁻¹; in assay [4], 173000 M⁻¹ s⁻¹; in assay [5], 142000 M⁻¹ s⁻¹. Also, the t½ in assay [1] was determined as 505 min; in assay [2], 825 min; in assay [3], 29 min; in assay [4], 18 min; in assay [5], 12 min.

By Kd is commonly meant the free concentration of one partner at which half of the binding sites on the other are occupied at equilibrium, for simple one-to-one binding. By koff is commonly meant a measure of how fast the partners let go of each other. Usually kon stands for a measure of how fast the partners come together. One may read the t½ as the time in which the quantity being followed falls by half.
